This assay addresses human CXCR5 (human) (UniProt P32302). As to the kind of experiment: cell-based or functional assay.

This is an account of results in US20160053014A1.

Chain of human CXCR5 (human) (P32302 whole entry): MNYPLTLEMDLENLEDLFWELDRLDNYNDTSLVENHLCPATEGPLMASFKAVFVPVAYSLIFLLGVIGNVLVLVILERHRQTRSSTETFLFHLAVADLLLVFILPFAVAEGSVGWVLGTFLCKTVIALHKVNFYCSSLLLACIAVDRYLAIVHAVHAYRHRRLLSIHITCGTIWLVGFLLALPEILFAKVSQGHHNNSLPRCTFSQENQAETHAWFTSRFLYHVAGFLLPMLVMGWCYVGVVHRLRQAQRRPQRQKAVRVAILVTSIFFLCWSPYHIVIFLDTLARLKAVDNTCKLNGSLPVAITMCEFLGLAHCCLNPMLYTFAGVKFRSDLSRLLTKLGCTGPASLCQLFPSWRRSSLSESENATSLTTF

B1: SAR113244 (antibody, from another filing, V domains shown)
VH: QVQLKESGPGLVAPSESLSITCTVSGFSLIDYGVNWIRQPPGKGLEWLGVIWGDGTTYYNPSLKSRLSISKDNSKSQVFLKVTSLTTDDTAMYYCARIVYWGQGTLVTVSA
VL: DIVMTQAAPSVAVTPGASVSISCRSSKSLLHSSGKTYLYWFLQRPGQSPQLLIYRLSSLASGVPDRFSGSGSGTAFTLRISRVEAEDVGVYYCMQHLEYPYTFGGGTKLEIKR
On to B1, for which the IC50 [nM] of mAbs in chemotaxis assay using HS-Sultan cells (25 nM CXCL13) came to 4.7 nM.
